Target: L7Ae;Nop5;fibrillarin L113K;V223E ((printed as Pf);(printed as Pf);(printed as Pf)) (UniProt Q8U160+Q8U4M1+Q8U4M2)
Experiment: NMR PRE + SAXS/SANS ensemble
Conditions: half-loaded mono-RNP, 50 mM NaPi, 500 mM NaCl, pH 6.6, 100% D2O (NMR), 55 C, SANS in 42%:58% D2O:H2O, substrate at 1.2-1.25 molar equivalents, scale: % [on,off] conformers

With “GCGAGCAAUGAUGAGUGAUGGGCGAACUGAGCUCGAAAGAGCAAUGAUGACGGAGGUGAUCACUGAGCUCGC / GCUUCGCCCAUCAC [st-sR26 + substrate D']” the binding signal was 66.

“GCGAGCAAUGAUGAGUGAUGGGCGAACUGAGCUCGAAAGAGCAAUGAUGACGGAGGUGAUCACUGAGCUCGC / GUAGAUCACCUCCG [st-sR26 + substrate D]” showed a binding signal (ddG vs substrate D' 0.86 +/- 0.55 kcal/mol) of 34.

Source: publication PMC7089733
